For the experiment, the target named is GST-HAb18GE (a fusion of the extracellular domain of hepatoma-associated antigen HAb18G with GST) (human) (UniProt P35613). Briefly: indirect ELISA on coated GST-HAb18GE; positive control; mean ± S. (ELISA stands for enzyme-linked immunosorbent assay.)
UniProt P35613, sequence (P35613 138-325): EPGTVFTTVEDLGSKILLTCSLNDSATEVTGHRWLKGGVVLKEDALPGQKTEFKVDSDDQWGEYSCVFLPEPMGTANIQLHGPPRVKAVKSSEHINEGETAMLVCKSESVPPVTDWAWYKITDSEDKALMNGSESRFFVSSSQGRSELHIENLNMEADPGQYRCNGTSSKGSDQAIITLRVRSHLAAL

B1: murine anti-human hepatoma McAb HAb18 (antibody, mouse IgG1, V domains shown)
VH: EVKLEESGGGLVQPGGSMKLSCVASGFTFSDAWMDWVRQSPEKGLEWVAEIRSKANNHAPYYTESVKGRFTISRDDSKSIIYLQMNNLRAEDTGIYYCTRDSTATHWGQGTLVTVSS
VL: SIVMTQTPTFLVVSAGDRVTITCKASQSVINDVAWYQQKPGQSPKLLIFYASNRNTGVPDRFTGSGYGTDFTFTISTVQAEDLAVYFCQQDYSPPFTFGSGTKLEIK
modifications: HRP-labelled in the competitive ELISAs
With B1, the A450 (Indirect ELISA) is 1.02 A450.

Values taken from US20050176933A1.
